Results on one substance are retold here after patent US7041288.

The target of experiment [1] is human IgE (SUS-11 IgE) (human) (UniProt P01854). Put plainly: SPR (BIAcore), IgE amine-coupled to CM5 chip, monophasic model. In general terms: SPR reads the build-up and loss of mass on a sensor chip optically.
Experiment [2] has the same target. Briefly: competition ELISA: SUS-11 IgE (1 µg/ml) pre-incubated with the antibody, captured on anti-IgE Le27; blocked ligand is HRP-labeled FcεRIα-HSA-FcεRIα (DFP); binding without competitor = 100 %. On the technique in general: In an ELISA, binding on a coated surface is turned into a signal by an enzyme label.

Chain of UniProt P01854 (P01854 other isoform, or with tags, fused parts or gaps): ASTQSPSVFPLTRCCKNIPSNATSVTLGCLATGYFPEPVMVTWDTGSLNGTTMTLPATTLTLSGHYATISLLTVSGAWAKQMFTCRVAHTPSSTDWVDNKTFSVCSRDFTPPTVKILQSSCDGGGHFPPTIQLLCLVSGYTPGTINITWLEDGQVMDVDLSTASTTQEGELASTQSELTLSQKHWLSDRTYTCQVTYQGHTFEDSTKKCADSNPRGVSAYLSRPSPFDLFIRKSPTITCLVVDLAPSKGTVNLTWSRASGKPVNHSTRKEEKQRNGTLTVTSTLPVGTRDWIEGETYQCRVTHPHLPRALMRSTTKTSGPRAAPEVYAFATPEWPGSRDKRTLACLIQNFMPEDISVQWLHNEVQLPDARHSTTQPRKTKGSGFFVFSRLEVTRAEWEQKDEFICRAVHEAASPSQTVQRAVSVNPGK

In the case of “BSW17, mouse monoclonal anti-human IgE antibody (hybridoma ECACC 96121916)”, in experiment [1], the Kd stood at 0.53 nM, the koff was determined as 4.2e-06 s⁻¹ and the kon was determined as 8000 M⁻¹ s⁻¹. The same substance showed an IC50 (read off the curve) in experiment [2] of 0.4 µg/mL.

A word on the Kd: it is the constant that tells how readily two partners part at equilibrium. Usually koff stands for the rate constant with which the complex falls apart. Read a low koff as slow dissociation. In general, kon refers to the rate constant with which the complex forms.
